The nature of the series: soluble on expression in E. coli; label from the status in PepcDB or PDB records.
For “MGSDKIHHHHHHMNTTQELHVIFGTGPLAQAVMRELLARNKRVRMINRSGKADIPSSVEIIASDAYNSENTRAVTTGATVVYQCAQPAYTQWPELFPSLQASIVEGVAANGAKLVVGDNLYMYGPVNGVLREDMPNAATTRKGRVRGQMTEALLDAHRRGIVRVAIGRASDFYGPLVLDSVMGDRIFPSVLTGKPASAIGEIDLPHTYTFIDDFGKALVVLGEEDKALGQIWHVPNAETITTRQFITIAFEEAGYPPKISKMGKFMMRLGGIFIPEARETVEMMYEFDEPFVVNHDKYVQAFGNHATPLREAIRHTLKWYSEHLKTLKT”, the “soluble on expression in E. coli” value is reported as “not soluble”.

Consider “MIDNFWRELPRPFFVLAPMEDVTDVVFRHVVSEAGRPDVFFTEFTNSDSYCHPEGMKSVRGRLIFTEDEQPMVAHIWGDNPEYFRQMSIGMAELGFKGIDINMGCPVPNVASRGKGSGLILRPDVAAELIQAAKAGGLPVSVKTRLGFKELSEWEDWLTHIFKQDIANLSIHLRTREEMSQVDAHWELIPEIKKLRDRIAPNTLITINGDILDRKMGLELAEKYGIDGVMIGRGIFKNPFAFEKEPREHSSKEHLDLLRLQLDLQDQYAEVLPRSITGLHRFFKIYVKGFPGAAELRNQLMSTKSTDEVRALLDKFEASVDEAQDSETV”, for which the “soluble on expression in E. coli” value is listed as “not soluble”.

As for “MTDQLQHIRKPPRTGKAARSGTQDEIVYAHIFDAILEQRLAPGTKLSEEALGEIFGVSRTIIRRALSRLAHEQVVLLRPNRGAVVASPSIDEARQILFARRTVERAITELATDNATAERLAEL”, the “soluble on expression in E. coli” value is “not soluble”.

In the case of “MAEDGPQKQQLDMPLVLDQDLTKQMRLRVESLKQRGEKKQDGEKLLRPAESVYRLDFIQQQKLQFDHWNVVLDKPGKVTITGTSQNWTPDLTNLMTRQLLDPAAIFWRKEDSDAMDWNEADALEFGERLSDLAKIRKVMYFLITFGEGVEPANLKASVVFNQL”, the “soluble on expression in E. coli” value is “soluble”.

“MEAESLADSGFPLEVFPQKMQSIIIDMVVHGNFKVDYVAMSMLSAASAALGNTYRIHVKQDWDTNAALYIILVGRPGMGKTPPLQLAYKPIREYERKLFDKFCHELDLYEAACATKESGSKEMKKPILKRVTLDDFTLEALVLEHYNNLRGIAINYDEILGLLANTDRYGKNPMLERLLSIWSGCHLENTRVKNDRPQRVEEPCVNIIGTTQTKRMKELMASKFMDTGFLDRILVVYPKSKKVPHWLDEEDSHVRQSEASRKWADIIGKIFGLDYARCNDTNECCPNILYMDKDAHSLFFGWWNRNVDAINAIEDDEDVETRVMKHNTHVARIALLLQALRYACGESHLQSIDVDSIEGALRLNEYCENCYQRCRAFVAEDTCDSMSKELLYLLEDSFDTKTAIKTGMENLHVTDRTVMNYIKELMKSGLITKAKKGFYEKVKFETGQATET”: the “soluble on expression in E. coli” value is recorded as “not soluble”.

“MGSDKIHHHHHHMPEIHQSIAQHYHERTKYDPETIASKSQRLDWAKQPVPFKEYKIGSAIDLKPYLQETPEVFVNDTNGQWWQRLSRLLFRSYGLTARMPSMGNTVYLRAAPSAGGLYPAEVYVVSRGTPLLSPGLYNYQCRTHSLIHYWESDVWQSLQEACFWHPALESTQLAIIVTAVFYRSAWRYEDRAYRRICLDTGHLLGNIELSAAITDYRPHLIGGFIDEAVNDLLYIDPLQEGAIAVLPLADLLDIQQNISPGCTALPSATETNYPQVPDGELLKYFHHHTQISASITGKLNLPTVIQEKSLEDKYNFPFCLKISTVSAPIYWGENLSDLEITMHKRRSTRAYNGEELTFDELKALLDFTYQPQNYIDQSLDNSPDYFDLNLIETFIAVCGVQGLEAGCYYYAPKAQELRQIRFKNFRRELHFLCLGQELGRDAAAVIFHTSDLKSAIAQYGDRVYRYLHMDAGHLGQRLNLAAIQLNLGVSGIGGFFDDQVNEVLGIPNDEAVIYITTLGRPR”: the “soluble on expression in E. coli” value is listed as “not soluble”.

In the case of “MLRWIVLICISLFLPLSAYADKSDCINHHCIAVIDAGSSSSRLHIYAYDLDETNTPIAIREIWNRKAVPGLPTIEHENKSVSAYMEKLFSDAPAVLMPVYFYSTAGMRLLPKTHHRNVNQLVAEWFDRQYYWRLVTARTISGTEEGIFAWLATNYQLNLFQQEPQTLAGVMDIGGASVQIVIPVVNPSFMDHEHTTTIRLYGKEFTVFSHSFLGLGQNEMGHQFFDLKFCFPEEYELPSGRQARGDAYACKDEIAILVNSVHSVSRKIKSVLAANPIEKWYILGGITFMLNDKLFSLDNQYFTNRDLISYADQNICHQKWSTLEVLYPDNLMVFNYCMLPSYLYALLVHGYGLKSYQKVNFMPNSKNIDWTLGVVLQHKQSAAALEHHHHHH”, the “soluble on expression in E. coli” value is on record as “not soluble”.
